The target in this assay is A-CooP. The assay can be described thus: SPR; Biacore T100; A-CooP immobilised on a CM5 chip (FC-4) by amine coupling, scrambled control peptide on the reference flow cell (FC-3); FABP3 as analyte 0.5-32 µM; 25 °C; PBS with 0.05% Tween-20, pH 7.4; steady state affinity fit of reference-subtracted sensorgrams; mean of three experiments. On the technique in general: SPR reads the build-up and loss of mass on a sensor chip optically.

One substance from PMC7409020, “Tumor-Targeting Peptides: The Functional Screen of Glioblastoma Homing Peptides to the Target Protein FABP3 (MDGI)” (Cancers, 2020) can be followed below.

One may read the Kd as the concentration at which binding is half-saturated. “recombinant N-terminal His6-tagged human FABP3 (natural protein)” registered a Kd of 16.7 µM.
